The source of these data is US20100184652A1.

By Kd is commonly meant the equilibrium constant for the complex coming apart.

This assay has as its target pY213 peptide (14-residue Abi1 peptide containing phosphorylated tyrosine 213) (human). In words: SPR (Biacore 3000), biotinylated pY213 on streptavidin chip, GST-Abl SH2 injected, 1:1 model. For orientation: SPR reads the build-up and loss of mass on a sensor chip optically.

“GST-Abl SH2 domain fusion protein (from UniProt P00519 146-236)” displayed a Kd of 33.2 nM.
